According to patent publication US20170165373A1:

Biological target: human BCMA (huBCMA), full length, on cells (human) (UniProt Q02223)
Test: cell-based or functional assay

human BCMA (huBCMA), full length, on cells (human), sequence (Q02223 whole entry N81S): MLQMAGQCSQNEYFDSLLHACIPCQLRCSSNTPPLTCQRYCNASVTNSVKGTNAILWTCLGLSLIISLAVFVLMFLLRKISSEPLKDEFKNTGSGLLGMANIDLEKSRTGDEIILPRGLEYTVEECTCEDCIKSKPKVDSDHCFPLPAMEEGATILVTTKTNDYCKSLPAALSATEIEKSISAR

B1: 29C12-MCC-DM1 (antibody drug conjugate) (protein)
VH: EVQLLESGGALVQPGGSLRLSCAASGFTFSSYAMNWVRQAPGKGLEWVSAISVGGDTYYADSVKGRFTISRDNSKNTLYLQMNSLRAEDTAVYYCAKDQVTMVRGVWYYYGLDVWGQGTTVTVSS
VL: DIVMIQSPLSLPVTPGEPASISCRSSQSLLHSNGNNYLDWYLQKPGQSPHLLISLGSNRTSGVPDRFSGSGSGTDFTLKISRVEAEDVGVYYCMQALQPPRRFGQGTKLEIKR
- H929 cell growth inhibition IC50 (CellTiter-Glo, 96 h): 0.39 nM
